From patent US7569660

Key:
yeast Hsp104 protein = yeast Hsp104 protein (UniProt P31539)
Rnq1 (S. cerevisiae) = Rnq1 (S. cerevisiae) (UniProt P25367)

yeast Hsp104 protein, sequence (P31539 whole entry): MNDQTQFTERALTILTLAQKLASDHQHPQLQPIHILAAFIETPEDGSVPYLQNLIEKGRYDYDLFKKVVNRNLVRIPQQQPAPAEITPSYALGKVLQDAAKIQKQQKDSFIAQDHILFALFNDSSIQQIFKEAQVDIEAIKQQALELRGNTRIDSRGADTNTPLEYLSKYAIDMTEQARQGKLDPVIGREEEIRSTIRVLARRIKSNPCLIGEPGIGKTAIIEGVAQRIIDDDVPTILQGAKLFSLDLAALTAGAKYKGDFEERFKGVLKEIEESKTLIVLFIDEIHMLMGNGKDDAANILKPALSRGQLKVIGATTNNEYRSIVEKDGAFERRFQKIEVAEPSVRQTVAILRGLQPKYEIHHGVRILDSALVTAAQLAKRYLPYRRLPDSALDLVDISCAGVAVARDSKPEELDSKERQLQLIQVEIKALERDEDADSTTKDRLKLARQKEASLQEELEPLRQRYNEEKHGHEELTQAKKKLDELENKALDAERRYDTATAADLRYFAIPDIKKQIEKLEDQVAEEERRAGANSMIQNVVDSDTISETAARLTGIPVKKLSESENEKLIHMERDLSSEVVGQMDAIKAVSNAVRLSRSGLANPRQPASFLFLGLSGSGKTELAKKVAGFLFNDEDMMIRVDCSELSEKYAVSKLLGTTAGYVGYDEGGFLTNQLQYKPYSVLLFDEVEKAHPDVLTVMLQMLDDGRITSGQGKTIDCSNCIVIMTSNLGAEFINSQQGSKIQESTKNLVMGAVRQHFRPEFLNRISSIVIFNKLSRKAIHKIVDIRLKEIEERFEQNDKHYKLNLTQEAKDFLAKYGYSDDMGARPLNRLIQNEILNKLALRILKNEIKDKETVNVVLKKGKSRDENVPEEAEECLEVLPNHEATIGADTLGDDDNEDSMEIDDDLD

Substance: aldolase
- ATPase activity of Hsp104 (released phosphate, Malachite Green) (yeast Hsp104 protein): did not

Substance: Rnq1 (from UniProt P25367 1-405)
- lag time of Thioflavin T fluorescence increase, seeded with 2% preformed fibers (Rnq1 (S. cerevisiae)): 4.3 h
- lag time of Thioflavin T fluorescence increase, unseeded (Rnq1 (S. cerevisiae)): 6.4 h
